Test results published in US20230408517A1 (BIO TECHNE, published 2023).
Like-named read-outs stand apart in the source and are kept apart here.

What was measured:
[1] = molecular target: T1, recombinant SARS-CoV-2 spike S1 RBD (R319-F541), C-terminal 6-His (SARS-CoV-2, UniProt P0DTC2 319-541); assay: sandwich dipstick, detector Ab4-AuNP
[2] = molecular target: T2, UK variant RBD (R319-F541 with N501Y), C-terminal 6-His (SARS-CoV-2, UniProt P0DTC2 319-541); assay: sandwich dipstick, detector Ab4-AuNP
[3] = molecular target: T3, SA variant RBD (R319-F541 with K417N, E484K, N501Y), C-terminal 6-His (SARS-CoV-2, UniProt P0DTC2 319-541); assay: sandwich dipstick, detector Ab4-AuNP
[4] = molecular target: T4, BR P.1 variant RBD (R319-F541 with K417T, E484K, N501Y), C-terminal 6-His (SARS-CoV-2, UniProt P0DTC2 319-541); assay: sandwich dipstick, detector Ab4-AuNP
[5] = molecular target: T1, recombinant SARS-CoV-2 spike S1 RBD …; assay: sandwich dipstick, detector Ab5-AuNP
[6] = molecular target: T2, UK variant RBD (R319-F541 with N501Y), …; assay: sandwich dipstick, detector Ab5-AuNP
[7] = molecular target: T3, SA variant RBD (R319-F541 with K417N, …); assay: sandwich dipstick, detector Ab5-AuNP
[8] = molecular target: T4, BR P.1 variant RBD (R319-F541 with …); assay: sandwich dipstick, detector Ab5-AuNP
[9] = molecular target: T1, recombinant SARS-CoV-2 spike S1 RBD …; assay: lateral flow NC50, RBD-AuNP vs immobilised ACE2
[10] = molecular target: T2, UK variant RBD (R319-F541 with N501Y), …; assay: lateral flow NC50, RBD-AuNP vs immobilised ACE2
[11] = molecular target: T3, SA variant RBD (R319-F541 with K417N, …); assay: lateral flow NC50, RBD-AuNP vs immobilised ACE2
[12] = molecular target: T4, BR P.1 variant RBD (R319-F541 with …); assay: lateral flow NC50, RBD-AuNP vs immobilised ACE2
[13] = molecular target: T1, recombinant SARS-CoV-2 spike S1 RBD …; assay: lateral flow NC50, RBD-AuNP vs immobilised ACE2; remark: listed apart in the source
[14] = molecular target: T2, UK variant RBD (R319-F541 with N501Y), …; assay: lateral flow NC50, RBD-AuNP vs immobilised ACE2; remark: listed apart in the source
[15] = molecular target: T3, SA variant RBD (R319-F541 with K417N, …); assay: lateral flow NC50, RBD-AuNP vs immobilised ACE2; remark: listed apart in the source
[16] = molecular target: T4, BR P.1 variant RBD (R319-F541 with …); assay: lateral flow NC50, RBD-AuNP vs immobilised ACE2; remark: listed apart in the source
[17] = molecular target: BR P.2 variant RBD (R319-F541 with E484K) (SARS-CoV-2, UniProt P0DTC2 319-541); assay: lateral flow NC50, RBD-AuNP vs immobilised ACE2
[18] = molecular target: K417E RBD (R319-F541 with K417E) (SARS-CoV-2, UniProt P0DTC2 319-541); assay: lateral flow NC50, RBD-AuNP vs immobilised ACE2
[19] = molecular target: T478K RBD (R319-F541 with T478K) (SARS-CoV-2, UniProt P0DTC2 319-541); assay: lateral flow NC50, RBD-AuNP vs immobilised ACE2
[20] = molecular target: T1, recombinant SARS-CoV-2 spike S1 RBD …; assay: flow cytometry, blocking of binding to hACE-2 cells
[21] = molecular target: T1, recombinant SARS-CoV-2 spike S1 RBD …; assay: as above; remark: listed apart in the source
[22] = molecular target: T4, BR P.1 variant RBD (R319-F541 with …); assay: as above
[23] = molecular target: T5, IN v2 variant RBD (R319-F541 with L452R, T478K) (SARS-CoV-2, UniProt P0DTC2 319-541); assay: as above
[24] = molecular target: rSARS2 RBD aa319-541, N439K, C-His (SARS-CoV-2, UniProt P0DTC2 319-541); assay: as above
[25] = molecular target: rSARS2-B.1.1.7 S aa16-1211 2x aa mut., C-His (SARS-CoV-2, UniProt P0DTC2 16-1211); assay: as above
[26] = molecular target: rSARS2-B.1.1.7 S aa16-1211 4x aa mut., C-His (SARS-CoV-2, UniProt P0DTC2 16-1211); assay: as above
[27] = molecular target: rSARS2-B.1.617.2 S aa16-1211 10+4x aa mut., C-His (SARS-CoV-2, UniProt P0DTC2 16-1211); assay: as above
[28] = molecular target: L452R RBD (R319-F541 with L452R) (SARS-CoV-2, UniProt P0DTC2 319-541); assay: dipstick, adsorbed RBD spots, Ab 10 µg/mL, GAM-AuNP
[29] = molecular target: IN v1 variant RBD (R319-F541 with L452R, E484Q) (SARS-CoV-2, UniProt P0DTC2 319-541); assay: lateral flow assay: blocking of RBD-AuNP capture by ACE2
[30] = molecular target: T5, IN v2 variant RBD (R319-F541 with …); assay: as above

B1: 1035224 (antibody, V domains shown)
VH: EVQLQQSGAEFVRPGALVKLSCKASGFNIKDDYMHWVKQRPEQGLEWIGWIDPENGNSIYDPKFQGKASITADTSSNTAYLQLSSLTSEDTAVYYCARGEYFGSGSFAYWGQGTLVTVSA
VL: QIVLTQSPAIMSASPGEKVTISCSASSSVSYMYWYQQKPGSSPKPWIYRTSNLASGVPARFSGSGSGTSYSLTISSMEAEDAATYYCQQYHSYPYMYTFGGGTKLEIK
- detection sensitivity [1]: 0.01 µg/mL
- detection sensitivity [2]: 0.01 µg/mL
- detection sensitivity [3]: 0.01 µg/mL
- detection sensitivity [4]: 0.01 µg/mL
- detection sensitivity [5]: 0.001 µg/mL
- detection sensitivity [6]: 0.001 µg/mL
- detection sensitivity [7]: 0.001 µg/mL
- detection sensitivity [8]: 0.001 µg/mL
- IC50 [9]: 0.66 µg/mL
- IC50 [10]: 2.72 µg/mL
- IC50 [11]: 1.14 µg/mL
- IC50 [12]: 1.11 µg/mL
- IC50 [13]: 0.66 µg/mL
- IC50 [14]: 2.72 µg/mL
- IC50 [15]: 1.14 µg/mL
- IC50 [16]: 1.11 µg/mL
- IC50 [17]: 0.54 µg/mL
- IC50 [18]: 0.38 µg/mL
- IC50 [19]: 0.76 µg/mL
- percent blocking [20]: 99.1%
- percent blocking [21]: 99.1%
- percent blocking [22]: 88%
- percent blocking [23]: 0%
- percent blocking [24]: 96.1%
- percent blocking [25]: 33.9%
- percent blocking [26]: 74.1%
- percent blocking [27]: 0%
- binding result [28]: no binding (tested: 10 µg/mL)
- binding result [29]: no binding (tested: 10 µg/mL)
- binding result [30]: no binding (tested: 10 µg/mL)
